Laboratory results published in patent publication US6090929, “Protein binding fragments of gravin” (Oregon Health Science University, dated 2000).

Molecular target: recombinant murine RIIα (murine, UniProt P12367)
Experiment: in situ overlay of fixed, permeabilized PMA-treated HEL cells with recombinant murine RIIα, immunofluorescence
Description: After 1 hr the coverslips were carefully washed in PBS and 0.2% BSA and incubated with either a mixture of FITC conjugated donkey anti-rabbit secondary antibody (1:100 dilution, Jackson ImmunoReasearch Laboratories Inc, West Grove, Pa.) and rhodamine conjugated phalloidin (1 unit/coverslip, Molecular Probes, Inc, Eugene, Oreg.) or secondary antibody alone. […] Prior to incubation with primary antibody, cells were incubated with 80 nM recombinant murine RII for 2 hr and unbound RII removed by washing three times in PBS and 0.2% BSA. […] Control coverslips were treated with the antibody to RII in the absence of exogenous murine RII. Cells were examined using a Leica confocal laser scanning system equipped with a Leitz Fluovert-FU inverted microscope and an argon/krypton laser.
Fixed and permeabilized cells pre-treated with PMA were overlayed with recombinant murine RIIα.

- binding result: binds
B1: gravin (full length, human; 250 kDa protein of cell lysates) (other)
chain: MGAGSSTEQRSPEQPPEGSSTPAEPEPSGGGPSAEAAPDTTADPAIAASDPATKLLQKNGQLSTINGVAEQDELSLQEGDLNGQKGALNGQGALNSQEEEEVIVTEVGQRDSEDVSERDSDKEMATKSAVVHDITDDGQEENRNIEQIPSSESNLEELTQPTESQANDIGFKKVFKFVGFKFTVKKDKTEKPDTVQLLTVKKDEGEGAAGAGDHQDPSLGAGEAASKESEPKQSTEKPEETLKREQSHAEISPPAESGQAVEECKEEGEEKQEKEPSKSAESPTSPVTSETGSTFKKFFTQGWAGWRKKTSFRKPKEDEVEASEKKKEQEPEKVDTEEDGKAEVASEKLTASEQAHPQEPAESAHEPRLSAEYEKVELPSEEQVSGSQGPSEEKPAPLATEVFDEKIEVHQEEVVAEVHVSTVEERTEEQKTEVEETAGSVPAEELVGMDAEPQEAEPAKELVKLKETCVSGEDPTQGADLSPDEKVLSKPPEGVVSEVEMLSSQERMKVQGSPLKKLFTSTGLKKLSGKKQKGKRGGGDEESGEHTQVPADSPDSQEEQKGESSASSPEEPEEITCLEKGLAEVQQDGEAEEGATSDGEKKREGVTPWASFKKMVTPKKRVRRPSESDKEDELDKVKSATLSSTESTASEMQEEMKGSVEEPKPEEPKRKVDTSVSWEALICVGSSKKRARRRSSSDEEGGPKAMGGDHQKADEAGKDKETGTDGILAGSQEHDPGQGSSSPEQAGSPTEGEGVSTWESFKRLVTPRKKSKSKLEEKSEDSIAGSGVEHSTPDTEPGKEESWVSIKKFIPGRRKKRPDGKQEQAPVEDAGPTGANEDDSDVPAVVPLSEYDAVEREKMEAQQAQKGAEQPEQKAATEVSKELSESQVHMMAAAVADGTRAATIIEERSPSWISASVTEPLEQVEAEAALLTEEVLEREVIAEEEPPTVTEPLPENREARGDTVVSEAELTPEAVTAAETAGPLGSEEGTEASAAEETTEMVSAVSQLTDSPDTTEEATPVQEVEGGVPDIEEQERRTQEVLQAVAEKVKEESQLPGTGGPEDVLQPVQRAEAERPEEQAEASGLKKETDVVLKVDAQEAKTEPFTQGKVVGQTTPESFEKAPQVTESIESSELVTTCQAETLAGVKSQEMVMEQAIPPDSVETPTDSETDGSTPVADFDAPGTTQKDEIVEIHEENEVHLVPVRGTEAEAVPAQKERPPAPSSFVFQEETKEQSKMEDTLEHTDKEVSVETVSILSKTEGTQEADQYADEKTKDVPFFEGLEGSIDTGITVSREKVTEVALKGEGTEEAECKKDDALELQSHAKSPPSPVEREMVVQVEREKTEAEPTHVNEEKLEHETAVTVSEEVSKQLLQTVNVPIIDGAKEVSSLEGSPPPCLGQEEAVCTKIQVQSSEASFTLTAAAEEEKVLGETANILETGETLEPAGAHLVLEEKSSEKNEDFAAHPGEDAVPTGPDCQAKSTPVIVSATTKKGLSSDLEGEKTTSLKWKSDEVDEQVACQEVKVSVAIEDLEPENGILELETKSSKLVQNIIQTAVDQFVRTEETATEMLTSELQTQAHVIKADSQDAGQETEKEGEEPQASAQDETPITSAKEESESTAVGQAHSDISKDMSEASEKTMTVEVEGSTVNDQQLEEVVLPSEEEGGGAGTKSVPEDDGHALLAERIEKSLVEPKEDEKGDDVDDPENQNSALADTDASGGLTKESPDTNGPKQKEKEDAQEVELQEGKVHSESDKAITPQAQEELQKQERESAKSELTES
